Assay results published in the nanobody polyreactivity screen of Harvey et al. (2022).

Assay: yeast display, Sf9 membrane polyspecificity reagent, FACS + sequencing; frameworks hold sequencing errors
How it was run: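 Galactose-induced (36–48 hours) yeast carrying a synthetic nanobody display library were exposed to 10% biotinylated, detergent-solubilized Sf9 membrane reagent at 4 °C for 1 hour. FACS followed streptavidin microbead enrichment, using low and high (top ~1%) gates for expression (anti-HA) and reagent binding (streptavidin). Colony PCR, MiSeq 2 × 250 sequencing and CDR-length filtering followed. Labels for polyreactivity reflect the gate of origin.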

Sequence: QVQLVESGGGLVQAGGSLRLSCAASGRIFPTNAMGWYRQAPGKERELVAAIPVSGGSTYYADSVKGRFTISRDNAKNTVYLQMNSLKPEDTAVYYCAVDDRASVGSRLDHWGQGTQVTVSS
- polyreactivity (PSR sort gate): low polyreactivity

Sequence: QVQLVESGGGLVQAGGSLRLSCAASGRIFPTNAMGWYRQAPGKERELVASITRSGSTYYADSVKGRFTISRDNAKNTVYLQMNSLKPEDTAVYYCAKRYRYSVGWPVKNSAFGYWGQGTQVTVSS
- polyreactivity (PSR sort gate): low polyreactivity

Sequence: QVQLVESGGGLVQAGGSLRLSCAASGRIFPTSTKGWYRQAPGKERELVAAITSGGTTYYADSVKGRVTISRDNAKNTVYLQMNSLKPEDTAVYYCAALRPRRGYYYWGQGTQVTVSS
- polyreactivity (PSR sort gate): high polyreactivity

Sequence: QVQLVESGGGLVQAGGSLRLSCAASGRIFPVNAMGWYRQAPGKEREFVARISRRGGSTYYADSVKGRFTISRDYEKNTVYLQMNSLKPEDTAVYYCAAVSSRYSYDYWGQGTQVTVSS
- polyreactivity (PSR sort gate): high polyreactivity

Sequence: QVQLVESGGGLVQAGGSLRLSCAASGRIFPVNTMGWYREAPGKERELVAAITSGGGTYYADSVKGRFTISRDNAKNTVYLQMNSLKPEDTAVYYCNAPEGRKPYDSWGQGTQVTVSS
- polyreactivity (PSR sort gate): low polyreactivity

Sequence: QVQLVESGGGLVQAGGSLRLSCAASGRIFPVNTMGWYRQAQGKVRELVAAITSGGGTYYADSVKGRFTISRDNAKNTVYLQMNSLKPEDTAVYYCNAPEGRKPYDSWGQGTQVTVSS
- polyreactivity (PSR sort gate): low polyreactivity

Sequence: QVQLVESGGGLVQAGGSLRLSCAASGRIFPWNTMGWYRQAPGKERELVAGINNGDRTYYADSVKGRFTISRDNAKNTVYLQMNSLKPEDTAVYYCAVDTWYFLFQYGYYQEGDYWGQGTQVTVSS
- polyreactivity (PSR sort gate): low polyreactivity

Sequence: QVQLVESGGGLVQAGGSLRLSCAASGRIFPWNTMGWYRQAPGKERELVAGINNGDRTYYADSVKGRFTISRDNENNTVYLQMNSLKPEDTAVYYCAARSPPSAYTYTTWEYDYWGQGTQVTVSS
- polyreactivity (PSR sort gate): low polyreactivity

Sequence: QVQLVESGGGLVQAGGSLRLSCAASGRIFPWYTMGWYRQAPGKERELVAAITSGGNTDYADSVKGRFTISRDNAKNNVYLQMNSLKPEDTAVYYCAAGGYPGTTYYGYDYWGQGTQVTVSS
- polyreactivity (PSR sort gate): low polyreactivity

Sequence: QVQLVESGGGLVQAGGSLRLSCAASGRIFPYMGWYRQAPGKERELVAAINASGGRTYYADSVKGRFTISRDNAKNTVYLQMNSLKPEDTAVYYCNAVWSSDTYTHPQYDYWGQGTQVTVSS
- polyreactivity (PSR sort gate): high polyreactivity

Sequence: QVQLVESGGGLVQAGGSLRLSCAASGRIFPYNAMGWYRQAPGKERELVATNTSGRSTYYADSVKGRFTISRDNAKNTVDVPLNSLKPEDTAVYYCAARYPSIYYYRYDYWGQGTQVTVSS
- polyreactivity (PSR sort gate): high polyreactivity

Sequence: QVQLVESGGGLVQAGGSLRLSCAASGRIFPYYAKGWYRQAPGKERELVAAINSGGSTYYADSVKGRFTISRDNAQNTVYLQMNSLKPEDTAVYYCIADVLYEDGFFWDDYWGQGTQVTVSS
- polyreactivity (PSR sort gate): low polyreactivity

Sequence: QVQLVESGGGLVQAGGSLRLSCAASGRIFPYYAMGWSRQAPGKVRELVAAISVSDVRTYYPDSVKGRFTISRDNAKNTVYLQMNSLKPEDTAVYYCAAYWYRSPQSGLDYWGQGTQVTVSS
- polyreactivity (PSR sort gate): low polyreactivity

Sequence: QVQLVESGGGLVQAGGSLRLSCAASGRIFPYYAMGWYIQAPGKERELVAAIDGIGDTTYYADSVKGRFTISRDNAKNTVYLQMNSLKPEDTAVYYCNADGDAYYWGSYDEEDYWGQGTQVTVSS
- polyreactivity (PSR sort gate): low polyreactivity

Sequence: QVQLVESGGGLVQAGGSLRLSCAASGRIFPYYAMGWYRQAPGKDRELVAAISWSGGRTYYADSVKGRFTISRDYAKNTVYLQMNSLKPDDNAVYFCAAGHSYRPYYYYGEYDYWGQGTQVTVSS
- polyreactivity (PSR sort gate): high polyreactivity

Sequence: QVQLVESGGGLVQAGGSLRLSCAASGRIFPYYAMGWYRQAPGKDRELVAANSYRGPRTSYADSVKGRFTISRDNAKNTAYLQRNSLKPEDTAVYYCAAVSVSWRGGRSSYEYWGQGTQVTVSS
- polyreactivity (PSR sort gate): high polyreactivity

Sequence: QVQLVESGGGLVQAGGSLRLSCAASGRIFPYYAMGWYRQAPGKERELVAGISYSGTSTYYADSVKGRFTISRDNAKNTVYLQMNSLKPEDTAVYYCATTSWRYGYDYWGQGTQVTVSS
- polyreactivity (PSR sort gate): high polyreactivity

Sequence: QVQLVESGGGLVQAGGSLRLSCAASGRIFPYYAMGWYRQAPGKERELVATISSGGRTNYADSVKGRFTMSRDNAKNTVYVQMNSLKPEDTAVYYCAADYRTPTDVEYDYWGQGTQVTVSS
- polyreactivity (PSR sort gate): high polyreactivity

Sequence: QVQLVESGGGLVQAGGSLRLSCAASGRIFPYYTLGWYTQAPGKERELVATITTGGSTNYADSVKGRFTLSRDNAENTVYLKMNSLKPEDTAVYYCNNDGVVEVRFTGRQEYDYWGQGTQVTVSS
- polyreactivity (PSR sort gate): low polyreactivity

Sequence: QVQLVESGGGLVQAGGSLRLSCAASGRIFPYYTMGWYRQAPGKERELVAAISRRGSSTYYADSVKGRFTISRDNAQNTVYLQMNSLKPEDTAVYNCAADRGGYTRTGEYDYWGQGTQVTVSS
- polyreactivity (PSR sort gate): high polyreactivity

Sequence: QVQLVESGGGLVQAGGSLRLSCAASGRIFPYYVMGWYRQAPGKERELVAAISRSGSSTYYADSVKGRFTISRDNAKNTVSLQMNSLKPEDTAVYSCAADYNWSPYYTRGDYWGQGTQVTVSS
- polyreactivity (PSR sort gate): high polyreactivity

Sequence: QVQLVESGGGLVQAGGSLRLSCAASGRIFPYYVMGWYRQAPGKERELVAAISRSGSSTYYADSVKGRFTITRDNAKNTVYLQMNSLKPEDTAVYYCAADYNWSPYYTRGDYWGQGTQVTVSS
- polyreactivity (PSR sort gate): high polyreactivity

Sequence: QVQLVESGGGLVQAGGSLRLSCAASGRIFQDYAMGWYRQAPGKERELVASIRWSSTSTYYADSVKGRFTISRDNAKNTVYLQMNSLKPEVSAVYYCAKRPFYLTYFRDDYWGQGTQVSVSS
- polyreactivity (PSR sort gate): low polyreactivity

Sequence: QVQLVESGGGLVQAGGSLRLSCAASGRIFQFNFMGWYRQAPGKERELVAAISGSGGSTYADSVKGRFTISRDNAKNTVYLQMNSLKPEDTAVYYCATEYVVYRPRGRLQKFDYWGQGTQVTVSS
- polyreactivity (PSR sort gate): low polyreactivity

Sequence: QVQLVESGGGLVQAGGSLRLSCAASGRIFQGNAMGWYRQAPGKERELVAAITSSGSSTYYADSVKGRFTISRDNAKNTVYLQMNSLKPEDTAVYYCAARATGPIMYYWGQGTQVTVSS
- polyreactivity (PSR sort gate): high polyreactivity

Sequence: QVQLVESGGGLVQAGGSLRLSCAASGRIFQGYAMGWYRQAPGKERELDAAITVRGGTTYYADSVKGRFTISRDNAKNTVYLQMNRRKPEDTAVYYCNAAKLIHCYQYVYPASNSRYYYWGQGTQVTVSS
- polyreactivity (PSR sort gate): low polyreactivity

Sequence: QVQLVESGGGLVQAGGSLRLSCAASGRIFQGYAMGWYRQAPGKERELVARITFRGARTYYADSVKGRFTISRDNAKITVYLHMNCLKPEDTAVYYFAKDAETYYWGSYKSLYDYWGQGTQVTVSS
- polyreactivity (PSR sort gate): low polyreactivity

Sequence: QVQLVESGGGLVQAGGSLRLSCAASGRIFQGYAMGWYRQAPRKERELVASITVRGGTTYYADSVKGRFTISRDHAKNTVYLQMISLKPEDTAVYYCNAAKLIHGYQSVYPGSNSRYYYWGQGTQVTVSS
- polyreactivity (PSR sort gate): low polyreactivity

Sequence: QVQLVESGGGLVQAGGSLRLSCAASGRIFQHNTMGWYRQAPGKEREFVAAIRRSGGSTYYADSVKGRFTISRDNAKNTVYLQMNSLKPEDTAVYYCAARDYPTGTRRWGGGDSWGQGTQVTVSS
- polyreactivity (PSR sort gate): low polyreactivity

Sequence: QVQLVESGGGLVQAGGSLRLSCAASGRIFQKNAMGWYRQAPGKERELVAAISSGGSTNYADSVKGRFTISRDNAKNTVYLQMNSLKPEDTAVYYCAVESVYEYGGYVDSAYDYWGQGTQVTVSS
- polyreactivity (PSR sort gate): low polyreactivity

Sequence: QVQLVESGGGLVQAGGSLRLSCAASGRIFQLYAMGWYRQRPGKERELVAAIRYSGDSTYYADSVKGRFTISRDNAKNTVYLQMNSLKPEDTAVYYCAAYWVYLSYYRYDYWGQGTQVTVSS
- polyreactivity (PSR sort gate): high polyreactivity

Sequence: QVQLVESGGGLVQAGGSLRLSCAASGRIFQNYAMGWYRQATGKERELVAAIRRSSGRSYYADSVKGRFTISRDNAKNTVYLLMNSLKPEDTAVYYCNAVRGEEYDYWGQGTQVTVSS
- polyreactivity (PSR sort gate): high polyreactivity

Sequence: QVQLVESGGGLVQAGGSLRLSCAASGRIFQPYTMGWYRQAPGKERELVAAITRSGGSTYYADSVKGRFTISRDNAKNTVYLQMNSLKPEDTAVYYCAADSRPYGKYDYWGQGTQVTVSS
- polyreactivity (PSR sort gate): high polyreactivity

Sequence: QVQLVESGGGLVQAGGSLRLSCAASGRIFQRYAMGWYRQAPGKERELVATITRSGGSTYYADSVKGRFTISRDNAKNTVYLQMNSLKPEDTAVFYCSRQWYRYGMGYWGQGTQVSVSS
- polyreactivity (PSR sort gate): high polyreactivity

Sequence: QVQLVESGGGLVQAGGSLRLSCAASGRIFQRYAMGWYSQAPGKERELVAAISSRGGRTFYADSVKGRFTISRDNAKNTVYLQMNSLKPEDTAAYYCAATATVGCVSFDYWGQGTQVTVSS
- polyreactivity (PSR sort gate): high polyreactivity

Sequence: QVQLVESGGGLVQAGGSLRLSCAASGRIFQRYMGWYRQAPGKERELVAAISRRGGSTYYADSVKARFTISRDNAKNTVYLQMNSLKPEDTAVYYWNAVNVLAPSRGRRYDYWGQGTQVTVSS
- polyreactivity (PSR sort gate): high polyreactivity

Sequence: QVQLVESGGGLVQAGGSLRLSCAASGRIFQSNAMGLYRQAPGKERELVAAISYSGGGSTYYADSVNGRFTISRDNAKNTVYLQMNSLKPEDTAVYYCAARRVGGCFYTWRNPAYEYWGQGTQVTVSS
- polyreactivity (PSR sort gate): high polyreactivity

Sequence: QVQLVESGGGLVQAGGSLRLSCAASGRIFQSNVMGWYRQAPGKERELVAGISTSGGSTYYADSVKGRFTISRDYAKNTVYLQMNSLKPEDTAVYYCAKDPSAVKVPYGYPVIKKTYNSWGQGTQVTVSS
- polyreactivity (PSR sort gate): low polyreactivity

Sequence: QVQLVESGGGLVQAGGSLRLSCAASGRIFQSYAMGWYRQAPGKERELVAGIRAGGGRTYYADSVKGRFTISRDNAKNTVYLQMNSLKPEDTAVYYCAAGGRPYKLDFTRSDYWGEGTQVTVSS
- polyreactivity (PSR sort gate): low polyreactivity

Sequence: QVQLVESGGGLVQAGGSLRLSCAASGRIFQVNAMGWYRQAPGKERELVAAITYSGGTTYYADSVKGRFTISRDNAKNTVYLQMNSLKPEDTAVYYCAAEGYGAQGDPWQYGYEYWGQGTQVTVSS
- polyreactivity (PSR sort gate): low polyreactivity

Sequence: QVQLVESGGGLVQAGGSLRLSCAASGRIFQWYAMGSYRQAPGKERELVATISDGDSTNYADSVKGRFTISRDNAKNTVFAQMNSLKTEDTEVYYCAALDSYYDSYYWYDYWGQGTQVTVSS
- polyreactivity (PSR sort gate): high polyreactivity

Sequence: QVQLVESGGGLVQAGGSLRLSCAASGRIFQYNAMGWYRQSPGKERELVAAIRRGGGSTYYADSVKGRFTISRDNAKNTVYLQMNSLKPEDTAVYYCAARRKRVSFYPEYDYWGQGTQVTVSS
- polyreactivity (PSR sort gate): low polyreactivity

Sequence: QVQLVESGGGLVQAGGSLRLSCAASGRIFQYYAMGWYRQAPGKERELVAAIDQSGDTTYYADSVKGRFTISRDNAKNTVYLQMNSLKPEDTAVYYCAAGYDWAYHWVPQWMYFWGQGTQVTVSS
- polyreactivity (PSR sort gate): low polyreactivity
